Assay results: patent publication US20210246166A1 (Bayer, published 2021)
Numbered stars: 1 amine (or outer) side, 2 acyl side, 3 side chain; on linkers, the order of the positions; unused ones are H or OH. Bridge positions count the residues as written; N and C are the ends. Square brackets hold non-standard residues; d marks the D form. Ends that are not written are not given here. Freidinger's Lactam = (2S)-2-[(3R)-3-amino-2-oxopyrrolidin-1-yl]-4-methylpentanoic acid (Freidinger's lactam), CC(C)C[C@@H](C(=O)[*:2])N1CC[C@@H](N[*:1])C1=O; (R)‑Pyrrolidine‑3‑acetic acid = O=C(C[C@H]1CCN([*:1])C1)[*:2]; Phe(2,5-diF) = O=C([C@H](Cc1cc(F)ccc1F)N[*:1])[*:2]; Pro(3S,4R-methano) = O=C(O)[C@H]1NC[C@@H]2C[C@@H]21; Pro(cis-4-CF3) = O=C(O)[C@@H]1C[C@H](C(F)(F)F)CN1; Pro(4-spirocPr) = O=C(O)[C@@H]1CC2(CC2)CN1; Oic = O=C(O)[C@@H]1C[C@@H]2CCCC[C@@H]2N1; tBuAla = CC(C)(C)C[C@H](N)C(=O)O; Pen = CC(C)(S)[C@H](N)C(=O)O; Sar = CNCC(=O)O

T1: Recombinant human MASP1 enzyme (fragment corresponding to amino acids 297-699, C-terminal His Tag) (human, UniProt P48740 297-699)
T1 sequence: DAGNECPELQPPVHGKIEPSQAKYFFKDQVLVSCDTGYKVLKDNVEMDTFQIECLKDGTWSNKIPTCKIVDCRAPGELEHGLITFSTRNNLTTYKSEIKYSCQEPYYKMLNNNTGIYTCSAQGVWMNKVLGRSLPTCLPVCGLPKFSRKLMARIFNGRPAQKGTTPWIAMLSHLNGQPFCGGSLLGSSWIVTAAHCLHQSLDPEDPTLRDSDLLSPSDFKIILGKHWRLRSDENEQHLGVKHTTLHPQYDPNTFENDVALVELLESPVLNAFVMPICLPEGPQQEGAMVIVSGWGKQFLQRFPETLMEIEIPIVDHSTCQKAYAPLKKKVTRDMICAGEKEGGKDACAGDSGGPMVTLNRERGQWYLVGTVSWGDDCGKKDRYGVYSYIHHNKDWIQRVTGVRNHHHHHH

B1: ((N-Me)G)-IC+SRS-((tBu)A)-P-((1S,2S,5R)-3-azabicyclo[3.1.0]hexane-2-carboxylic acid)-I-(Pen)+IPD-OH (peptide)
peptide: [Sar]ICSRS[tBuAla]P[Pro(3S,4R-methano)]I[Pen]IPD-OH
modifications: disulfide 3-11; N-terminus assumed
SMILES: CC[C@H](C)[C@H](NC(=O)CNC)C(=O)N[C@H]1CSSC(C)(C)[C@@H](C(=O)N[C@H](C(=O)N2CCC[C@H]2C(=O)N[C@@H](CC(=O)O)C(=O)O)[C@@H](C)CC)NC(=O)[C@H]([C@@H](C)CC)NC(=O)[C@@H]2[C@H]3C[C@H]3CN2C(=O)[C@@H]2CCCN2C(=O)[C@H](CC(C)(C)C)NC(=O)[C@H](CO)NC(=O)[C@H](CCCNC(=N)N)NC(=O)[C@H](CO)NC1=O
B2: aIC+SRS-((tBu)A)-P-((6S)-5-Azaspiro[2.4]heptane-6-carboxylic acid)-I-(Pen)+IPD-OH (peptide)
peptide: [dA]ICSRS[tBuAla]P[Pro(4-spirocPr)]I[Pen]IPD-OH
modifications: disulfide 3-11; N-terminus assumed
SMILES: CC[C@H](C)[C@H](NC(=O)[C@@H](C)N)C(=O)N[C@H]1CSSC(C)(C)[C@@H](C(=O)N[C@H](C(=O)N2CCC[C@H]2C(=O)N[C@@H](CC(=O)O)C(=O)O)[C@@H](C)CC)NC(=O)[C@H]([C@@H](C)CC)NC(=O)[C@@H]2CC3(CC3)CN2C(=O)[C@@H]2CCCN2C(=O)[C@H](CC(C)(C)C)NC(=O)[C@H](CO)NC(=O)[C@H](CCCNC(=N)N)NC(=O)[C@H](CO)NC1=O
B3: ((N-Me)G)-IC+SRSLP-(Oic)-I-(Pen)+IP-(Freidinger's Lactam)-OH (peptide)
peptide: [Sar]ICSRSLP[Oic]I[Pen]IP[Freidinger's Lactam]-OH
modifications: disulfide 3-11; N-terminus assumed
SMILES: CC[C@H](C)[C@H](NC(=O)CNC)C(=O)N[C@H]1CSSC(C)(C)[C@@H](C(=O)N[C@H](C(=O)N2CCC[C@H]2C(=O)N[C@@H]2CCN([C@@H](CC(C)C)C(=O)O)C2=O)[C@@H](C)CC)NC(=O)[C@H]([C@@H](C)CC)NC(=O)[C@@H]2C[C@@H]3CCCC[C@@H]3N2C(=O)[C@@H]2CCCN2C(=O)[C@H](CC(C)C)NC(=O)[C@H](CO)NC(=O)[C@H](CCCNC(=N)N)NC(=O)[C@H](CO)NC1=O
B4: ((N-Me)G)-IC+SRS-((2,5-Difluoro)F)-PPI-(Pen)+IPe-OH (peptide)
peptide: [Sar]ICSRS[Phe(2,5-diF)]PPI[Pen]IP[dE]-OH
modifications: disulfide 3-11; N-terminus assumed
SMILES: CC[C@H](C)[C@H](NC(=O)CNC)C(=O)N[C@H]1CSSC(C)(C)[C@@H](C(=O)N[C@H](C(=O)N2CCC[C@H]2C(=O)N[C@H](CCC(=O)O)C(=O)O)[C@@H](C)CC)NC(=O)[C@H]([C@@H](C)CC)NC(=O)[C@@H]2CCCN2C(=O)[C@@H]2CCCN2C(=O)[C@H](Cc2cc(F)ccc2F)NC(=O)[C@H](CO)NC(=O)[C@H](CCCNC(=N)N)NC(=O)[C@H](CO)NC1=O
B5: AIC+SRS-((tBu)A)-P-((4-CF3)P)-IC+IPD-OH (peptide)
peptide: AICSRS[tBuAla]P[Pro(cis-4-CF3)]ICIPD-OH
modifications: disulfide 3-11; N-terminus assumed
SMILES: CC[C@H](C)[C@H](NC(=O)[C@H](C)N)C(=O)N[C@H]1CSSC[C@@H](C(=O)N[C@H](C(=O)N2CCC[C@H]2C(=O)N[C@@H](CC(=O)O)C(=O)O)[C@@H](C)CC)NC(=O)[C@H]([C@@H](C)CC)NC(=O)[C@@H]2C[C@H](C(F)(F)F)CN2C(=O)[C@@H]2CCCN2C(=O)[C@H](CC(C)(C)C)NC(=O)[C@H](CO)NC(=O)[C@H](CCCNC(=N)N)NC(=O)[C@H](CO)NC1=O
B6: ((N-Me)G)-IC+SRSLP-(Oic)-I-(Pen)+IP-((R)-Pyrrolidine-3-acetic acid)-OH (peptide)
peptide: [Sar]ICSRSLP[Oic]I[Pen]IP[(R)‑Pyrrolidine‑3‑acetic acid]-OH
modifications: disulfide 3-11; N-terminus assumed
SMILES: CC[C@H](C)[C@H](NC(=O)CNC)C(=O)N[C@H]1CSSC(C)(C)[C@@H](C(=O)N[C@H](C(=O)N2CCC[C@H]2C(=O)N2CC[C@H](CC(=O)O)C2)[C@@H](C)CC)NC(=O)[C@H]([C@@H](C)CC)NC(=O)[C@@H]2C[C@@H]3CCCC[C@@H]3N2C(=O)[C@@H]2CCCN2C(=O)[C@H](CC(C)C)NC(=O)[C@H](CO)NC(=O)[C@H](CCCNC(=N)N)NC(=O)[C@H](CO)NC1=O
B7: ((N-Me)G)-IC+SRS-((2,5-Difluoro)F)-PPI-(Pen)+IPDd-OH (peptide)
peptide: [Sar]ICSRS[Phe(2,5-diF)]PPI[Pen]IPD[dD]-OH
modifications: disulfide 3-11; N-terminus assumed
SMILES: CC[C@H](C)[C@H](NC(=O)CNC)C(=O)N[C@H]1CSSC(C)(C)[C@@H](C(=O)N[C@H](C(=O)N2CCC[C@H]2C(=O)N[C@@H](CC(=O)O)C(=O)N[C@H](CC(=O)O)C(=O)O)[C@@H](C)CC)NC(=O)[C@H]([C@@H](C)CC)NC(=O)[C@@H]2CCCN2C(=O)[C@@H]2CCCN2C(=O)[C@H](Cc2cc(F)ccc2F)NC(=O)[C@H](CO)NC(=O)[C@H](CCCNC(=N)N)NC(=O)[C@H](CO)NC1=O

target: Recombinant human MASP2 enzyme (fragment corresponding to amino acids 297-686, C-terminal His Tag) (human, UniProt O00187 297-686); assay: cell-based or functional assay
Sequence (O00187 other isoform, or with tags, fused parts or gaps limits assumed): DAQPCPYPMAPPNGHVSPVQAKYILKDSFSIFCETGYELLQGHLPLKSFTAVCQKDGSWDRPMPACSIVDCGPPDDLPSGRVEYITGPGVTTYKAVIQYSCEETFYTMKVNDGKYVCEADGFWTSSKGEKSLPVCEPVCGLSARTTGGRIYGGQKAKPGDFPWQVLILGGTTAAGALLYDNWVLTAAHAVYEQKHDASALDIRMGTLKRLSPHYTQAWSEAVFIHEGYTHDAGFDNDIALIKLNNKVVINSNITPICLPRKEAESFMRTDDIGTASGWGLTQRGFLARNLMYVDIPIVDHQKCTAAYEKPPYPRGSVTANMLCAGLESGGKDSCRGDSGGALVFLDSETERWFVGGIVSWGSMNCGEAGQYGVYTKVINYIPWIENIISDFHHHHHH

In order of rising “human MASP2 IC50” value:
1. B7  20 nM
2. B2  22 nM
3. B4  64 nM
4. B3  96 nM
5. B1  104 nM
6. B6  116 nM
7. AICSRSLP[Oic]I[Pen]IP[βDap]-OH (disulfide 3-11; also: C-terminal Dap bonded through its side-chain amino group) [AIC+SRSLP-(Oic)-I-(Pen)+IP-(*Dap)-OH]  210 nM
8. B5  1000 nM

target: T1, Recombinant human MASP1 enzyme …; assay: cell-based or functional assay

In order of rising “human MASP1 IC50” value:
1. B2  4.4 nM
2. AICSRSLP[Oic]I[Pen]IP[βDap]-OH (disulfide 3-11; also: C-terminal Dap bonded through its side-chain amino group) [AIC+SRSLP-(Oic)-I-(Pen)+IP-(*Dap)-OH]  5.1 nM
3. B1  6.6 nM
4. B6  6.78 nM
5. B5  7.8 nM
6. B7  17 nM
7. B4  21 nM
8. B3  23 nM
